Measurements from publication PMC9039736, “Identifying novel SMYD3 interactors on the trail of cancer hallmarks” (Computational and Structural Biotechnology Journal, 2022).
Each block holds one binder with its values, some of them ahead of it.

Target: T1, GST-BRCA2(1338–1781) (human, UniProt P51587 1338-1781)
T1 construct: one of nine GST fusion proteins spanning the entire coding region of BRCA2; source: recombinant GST fusion protein
Experiment: pull-down; 200 ng HIS-SMYD3 construct with 500 ng GST-BRCA2(1338-1781), 1 h at 4 °C; precipitated by Dynabeads HIS-Tag Isolation and Pulldown; washed in buffer A (20 mM Tris-HCl pH 8, 150 mM KCl, 5 mM MgCl2, 0.2 mM EDTA, 10% glycerol, 0.1% NP-40, 1 mM DTT); immunoblot anti-GST and anti-HIS
Conditions: both partners purified

T1 sequence (P51587 1338-1781): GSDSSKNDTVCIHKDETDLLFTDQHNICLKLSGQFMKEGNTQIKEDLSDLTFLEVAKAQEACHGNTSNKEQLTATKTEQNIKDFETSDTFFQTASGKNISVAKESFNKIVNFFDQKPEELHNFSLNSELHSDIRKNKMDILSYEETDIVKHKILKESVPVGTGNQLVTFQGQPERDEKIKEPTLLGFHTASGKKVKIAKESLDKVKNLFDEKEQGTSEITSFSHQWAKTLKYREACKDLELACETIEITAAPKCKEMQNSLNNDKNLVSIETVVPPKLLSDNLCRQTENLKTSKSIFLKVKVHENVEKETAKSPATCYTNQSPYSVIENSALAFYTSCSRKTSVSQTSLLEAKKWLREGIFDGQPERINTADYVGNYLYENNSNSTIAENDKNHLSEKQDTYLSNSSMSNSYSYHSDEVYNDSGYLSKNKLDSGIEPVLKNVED

- binding result: binds
B1: HIS-SMYD3-N-term(1–235) (domain or fragment, human, UniProt Q9H7B4 1-235, looked up)
chain: MEPLKVEKFATAKRGNGLRAVTPLRPGELLFRSDPLAYTVCKGSRGVVCDRCLLGKEKLMRCSQCRVAKYCSAKCQKKAWPDHKRECKCLKSCKPRYPPDSVRLLGRVVFKLMDGAPSESEKLYSFYDLESNINKLTEDKKEGLRQLVMTFQHFMREEIQDASQLPPAFDLFEAFAKVICNSFTICNAEMQEVGVGLYPSISLLNHSCDPNCSIVFNGPHLLLRAVRDIEVGEEL
notes: SMYD3, human, residues 1-235, comprises the SET domain; source: recombinant human protein

- binding result: binds
B2: HIS-SMYD3-FL (natural protein, human, UniProt Q9H7B4 1-428, looked up)
chain: MEPLKVEKFATAKRGNGLRAVTPLRPGELLFRSDPLAYTVCKGSRGVVCDRCLLGKEKLMRCSQCRVAKYCSAKCQKKAWPDHKRECKCLKSCKPRYPPDSVRLLGRVVFKLMDGAPSESEKLYSFYDLESNINKLTEDKKEGLRQLVMTFQHFMREEIQDASQLPPAFDLFEAFAKVICNSFTICNAEMQEVGVGLYPSISLLNHSCDPNCSIVFNGPHLLLRAVRDIEVGEELTICYLDMLMTSEERRKQLRDQYCFECDCFRCQTQDKDADMLTGDEQVWKEVQESLKKIEELKAHWKWEQVLAMCQAIISSNSERLPDINIYQLKVLDCAMDACINLGLLEEALFYGTRTMEPYRIFFPGSHPVRGVQVMKVGKLQLHQGMFPQAMKNLRLAFDIMRVTHGREHSLIEDLILLLEECDANIRAS
notes: SMYD3, human, full length (constructs count to residue 428); also called HIS-SMYD3-FL (full length); source: recombinant human protein

- binding result: binds
B3: HIS-SMYD3-C-term(236–428) (domain or fragment, human, UniProt Q9H7B4 236-428, looked up)
chain: TICYLDMLMTSEERRKQLRDQYCFECDCFRCQTQDKDADMLTGDEQVWKEVQESLKKIEELKAHWKWEQVLAMCQAIISSNSERLPDINIYQLKVLDCAMDACINLGLLEEALFYGTRTMEPYRIFFPGSHPVRGVQVMKVGKLQLHQGMFPQAMKNLRLAFDIMRVTHGREHSLIEDLILLLEECDANIRAS
notes: SMYD3, human, residues 236-428, comprises the CT domain; source: recombinant human protein
